Results published in patent US20100184959A1 (AstraZeneca / MedImmune, published 2010).

How the values were obtained:
[1] = target: T1, human FcγRIIIa V158 allotype, extracellular domain (human, UniProt P08637 17-208); test: RIA, 35S-labelled Fc on coated receptor
T1 construct: extracellular domain; expressed in HEK-EBNA cells; also called hFcγRIIIa; CD16; not shown: Flag10His tag of the vector
From the text: Fc polypeptide variants were screened for binding to FcγRIIIa using a RIA (radio immunoassay) as described in Jermutus et al. (2001, PNAS 98(1): 75-80). The Fc region from the plasmid for each variant was PCR amplified to produce a linear DNA template. This template was purified and a T7 promoter sequence attached at the 5′ end to enable in vitro transcription. The resulting mRNA was purified using G25 Sephadex™ columns. For each variant, in vitro translations in the presence of 35S-labelled methionine were set up at 37° C. for 40 min. The translations were stopped using PBS with 0.05% Tween 20. The translation mixture was added to a plate coated with 100 nM hFcγRIIIa and incubated for 2 hours at room temperature. The plates were washed three times in PBS with 0.05% Tween 20 and three times in PBS. The bound protein was eluted with 0.1M triethylamine and the radiolabel quantified by liquid scintillation counting.

human C1q = target: T2, human C1q (human, UniProt P02745 23-245; P02746 28-253; P02747 29-245); test: RIA, 35S-labelled Fc on coated C1q
T2 construct: Human C1q (Sigma) in the ELISA; hC1q coated at 100 nM in the RIA; also called hC1q
T2 sequence (P02745 23-245 limits assumed, chain 1 of 3): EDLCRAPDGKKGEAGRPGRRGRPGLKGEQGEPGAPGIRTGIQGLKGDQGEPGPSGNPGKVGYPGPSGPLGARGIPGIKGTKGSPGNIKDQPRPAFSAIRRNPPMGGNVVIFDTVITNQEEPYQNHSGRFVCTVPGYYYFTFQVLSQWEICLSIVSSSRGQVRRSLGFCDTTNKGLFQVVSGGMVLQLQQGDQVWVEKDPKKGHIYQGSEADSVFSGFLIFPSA
T2 sequence (P02746 28-253 limits assumed, chain 2 of 3): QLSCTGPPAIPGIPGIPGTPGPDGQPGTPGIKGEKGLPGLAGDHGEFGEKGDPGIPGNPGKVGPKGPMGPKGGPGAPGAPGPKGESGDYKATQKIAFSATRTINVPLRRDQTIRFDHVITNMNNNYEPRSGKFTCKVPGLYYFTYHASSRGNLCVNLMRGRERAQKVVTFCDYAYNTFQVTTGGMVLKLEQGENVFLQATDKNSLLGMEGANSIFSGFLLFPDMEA
T2 sequence (P02747 29-245 limits assumed, chain 3 of 3): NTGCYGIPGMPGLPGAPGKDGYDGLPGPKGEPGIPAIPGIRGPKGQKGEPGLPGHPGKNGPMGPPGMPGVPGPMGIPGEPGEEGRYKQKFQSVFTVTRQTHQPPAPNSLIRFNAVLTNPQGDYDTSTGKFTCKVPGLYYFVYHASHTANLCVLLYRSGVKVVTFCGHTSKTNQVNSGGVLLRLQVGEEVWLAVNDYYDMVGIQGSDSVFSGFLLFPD
From the text: IgG1 Fc variants arising from round three outputs of Fcγ1 selections against human C1q using ribosome display, were screened for binding using the primary RIA as described in Jermutus et al. (2001, PNAS 98(1): 75-80). In brief, the Fc region from the plasmid for each variant (96 well format) was PCR amplified to produce a linear DNA template. This template was gel purified and reamplified attaching the T7 promoter sequence for T7 directed in vitro transcription and the resulting mRNA purified on G25 Sephadex columns. For each variant, in vitro translations in the presence of 35S-labelled methionine was performed at 37° C. for 40 mins. The translations were stopped with PBS with 0.05% Tween 20. The translation mixture was incubated on a plate coated with 100 nM hC1q for 2 hours at room temperature. Plates were washed three times in PBS with 0.05% Tween 20 and three times in PBS. The remaining radioactivity was eluted with 0.1M triethylamine and quantified by liquid scintillation counting.

T1 sequence (P08637 17-208 F176V): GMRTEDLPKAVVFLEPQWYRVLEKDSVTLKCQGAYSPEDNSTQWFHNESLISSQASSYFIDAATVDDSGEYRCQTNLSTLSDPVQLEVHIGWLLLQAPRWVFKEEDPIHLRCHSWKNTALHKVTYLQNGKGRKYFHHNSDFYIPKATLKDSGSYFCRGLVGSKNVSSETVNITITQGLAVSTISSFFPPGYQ

Row | Binder | RIA for RIIIa (V158) [1] [fold over wild-type] | RIA for C1q (human C1q) [fold over wild-type]
1 | Fc polypeptide variant 136D04b (Fcγ1, in vitro translated) (other, Fc region only, in vitro translated with 35S-methionine for RIA) AHTCPPCPAPELLGGPSVFLFPPKPKDTLMISRTPEVTCVVVDVSHEDPEVKFNWYVDGVEVHNAKTKPREEQYNSTYRVVSVLTVLHQDWLNGKEYKCKVSNKALPAPIEKIISKAKGQPREPQVYTLPPSREEMTKNQVSLTCLVKGFYPSDIAVEWESNGQPENNYKTTPPVLDSDGSFFLYSKLTVDMSRWQQGNVFSCSVMHEALHNHYTQKSLSLSPGK | 2.3 | –
2 | Fc polypeptide variant 3C11 (Fcγ1, in vitro translated) (other, Fc region only, in vitro translated with 35S-methionine for RIA) AHTCPPCPAPELLGGPSVFLFPPKPKDTLMISRTPEVTCVVVDVSHEDPEVKFNWYVDGVEVHNAKTKPREEQYNSTYRVVSVLTVLHQDWLNGKEYKCKVSNKALPAPIEKTISKAKGQPREPRVYTLPPSREEMTKYQVSLTCLVKGFYPSDIAVEWESNGQPENNYKTTPPVLDSDGSFFLYSKLTVDKSRWQQGNVFSCSVMHEALHNHYTQRSLSLSPGK | – | 1.2
3 | Fc polypeptide variant 135E07 (Fcγ1, in vitro translated) (other, Fc region only, in vitro translated with 35S-methionine for RIA) AYTCPPCSAPELLGGPSVFLFPPKPKDTLMISRTPEVTCVVVDVSHEDPEVKFNWYVDGVEVHNAKTKPREEQYNSTYRVVSVLTVLHQDWLNGKEYKCKASNKALPAPIDKTISRAKGQPREPQVYTLPPSREEMTKNQVCLTCLVKGFYPSDIAVEWESNGQPENNYKTTPPVLDSDGSFFLYSKLTVDKSRWQQGNVFSCSVMHEALHNHYTQKSLSLSPGK | 1.7 | –
4 | Fc polypeptide variant 136D04a (Fcγ1, in vitro translated) (other, Fc region only, in vitro translated with 35S-methionine for RIA) AHTCPPCPAPELLGGPSVFLFPPKPKDTLMISRTPEVTCVVVDVSHEDPEVKFNWYVDGVEVHNAKTKPREEQYNSTYRVVSVLTVLHQDWLNGKEYKCKVSNKALPAPIEKIISKAKGQPREPQVYTLPPSREEMTKNQVSLTCLVKGFYPSDIAVEWESNGQPENNYKTTPPVLDSDGSFFLYSKLTVDMSRWQQGNVFSCSVMHEALHNHYTQKSLSLSRGK | 2.3 | –
5 | Fc polypeptide variant 110H08 (Fcγ1, in vitro translated) (other, Fc region only, in vitro translated with 35S-methionine for RIA) AHTCPPCPAPELLGGPSVFLFLPEPKDTLMISRTPEVTCVVVDVSHEDPEVKFNWYVDGVEVHNAKTKPREEQYNSTYRVVSVLTVLHQDWLNGKEYKCKVSNKALPAPIEKTISKAKGQPREPQVYTLPPSREEMTKNQVSLTCLVKGFYPSDIAVEWESNGQPENNYKTTPPVLGSDGSFFLYSRLTVDKSRWQQGNVFSCSVMHEALHNHYTQKSLSLSPGK | 2.7 | –
6 | Fc polypeptide variant 2A11 (Fcγ1, in vitro translated) (other, Fc region only, in vitro translated with 35S-methionine for RIA) AHTCPPCPAPELLGGPSVFLFPPKPKDTLMISRTPEVTYVVVDVSHEDPEVKFNWYVDGVEVHNAKTEPREEQYNSTYRVVSVFTVLHRDWLNGKEYKCKVSNKALPAPIGKTISKAKGQPREPQVYTLPPSREEMTKNQVSLTCLVKGFYPSDIAVEWESNGQPENNYKTTPPVLDSDGSFFLYSKLTVDKSRWQQGNVFSCSVMHEALHNHYTLKSLSLSPGK | – | 2.4
7 | Fc polypeptide variant 110B09 (Fcγ1, in vitro translated) (other, Fc region only, in vitro translated with 35S-methionine for RIA) AHTCPPCPAPELLGGPSVFLFPPKPKDTLMISRTPEVTCVVVDVSHEDPEVKFDWYVDGVEVHNAKTKPQEEQYNSTYRVVSALTVLHQDWLNGKEYKCKVSNKALPAPIEKTISKAKGQPREPQVYTLPPSREEMTKNQVSLTCLVKGFYPSDVAVEWESNGQPENNYKTAPPVLDSDGSFFLYSKLTADKSRWQQGNVFSCSVMHEALHNHYTQESLSLSPGK | 4.4 | –
8 | Fc polypeptide variant 125E05 (Fcγ1, in vitro translated) (other, Fc region only, in vitro translated with 35S-methionine for RIA) AHTCPPCPAPELLGGPSAFLFPPKPKDTLMISRTPEVTCVVVDVGHEDPEVKFNWYVDGVEVHNAKTKPREEQYNSTYRVVSVLTVLHQDWLNGKEYKCKVSNKALPAPIEKTISKAKEQPREPQVYTLPPSRGEMTKNQVSLTCLVKGFYPSDIAVEWESNGQPENNYKTTPPVLDSDGSFFLYSKLTVDKSRWQQGNVFSCSVMHEALHNHYTQKSLSLSPGK | 4.7 | –

Continued, values first:

Row | RIA for RIIIa (V158) [1] [fold over wild-type] | RIA for C1q (human C1q) [fold over wild-type] | Binder
9 | 1.9 | – | Fc polypeptide variant 126F07 (Fcγ1, in vitro translated) (other, Fc region only, in vitro translated with 35S-methionine for RIA) AHTCPLCPAPELLGGPSVFLFPPKPKDTLMISRTPEVTCVVVDVSHEDPEVKFNWYVDGVEVHNAKAKPREEQYNSTYRVVSVLTVLHQDWLNGKEYKCKVSNKALPAPIEKTISKAKGQPREPQVYTLPPSREEMTKNQVSQTCLVKGFYPSDIAVEWESNGQPESNYKTTPPVLDSDGSFFLYSKLTVDKSRWQQGNVFSCSVMHEALHNHYTQKGLSLSPGK
10 | 1.3 | – | Fc polypeptide variant 125B01 (Fcγ1, in vitro translated) (other, Fc region only, in vitro translated with 35S-methionine for RIA) ANTCPPCPAPELLGGPSVFLLPPKPKDTLMISRTPEVTCVVVDVSHEDPEVKFNWYVDGVEVHNAKTKPREEQYNSTYRVVSVLTVLHQDWLNGKEYKCKVSNKALPAPIEKTISKAKGQPREPQVYTLPPSREEMTKNQVSLTCLVKGFYPSDIAVEWESNGQPENNYKATPPVLDSDGSFFLYSKLTVDKSRWQQGNVFSCSVMHEALPNHYTQKSLSLSPGK
11 | 1.7 | – | Fc polypeptide variant 121F02 (Fcγ1, in vitro translated) (other, Fc region only, in vitro translated with 35S-methionine for RIA) AHTCPPCPAPELLGGPSVFLSPPKLKDTLMISRTPEVTCVVVVASHEDPEVKFNWYVDGVEVHNAKTKPREEQYNSTYRVVSVLTVLHQDWLNGKEYKCKVSNKALPAPIEKTISKAKGQPREPQVYTLPPSREEMTKNQVSLTCLVKGFYPSDIAVEWENNGQPENNYKTTPPVLDSDGSFFLYSKLIVDKSRWQQGNVFSCSVMHEALHNHYTQKSLSLSPGK
12 | 1.7 | – | Fc polypeptide variant 135C09 (Fcγ1, in vitro translated) (other, Fc region only, in vitro translated with 35S-methionine for RIA) AHACPPCPAPELLGGPSVFLFPPKPKDTLMISRTPEVTCVVVDVSHEDPEVKFNWYVDGVEVHNAKTKPREEQYNSTYCVVGVLTVLHQNWLDGKEYKCKVSNKALPAPIEKTISKAKGQPREPQVYTSPPSREEMTKNQVSLTCLVKGFYPSDIAVEWESNGQPENNYKTTPPVLDSDGSFFLYSKLTVDKSRWQQGSVFSCSVMHEALHNHYTQKSLSLSPGK
13 | 3.4 | – | Fc polypeptide variant 135A09 (Fcγ1, in vitro translated) (other, Fc region only, in vitro translated with 35S-methionine for RIA) AHTCPPCPAPELLGGPSVFLFPPKPKDTLMISRTPEVTCVVVDVSHKDPEVKFNWYVDGVEVHNAKTKPREEQYNSTHRVVSVLTVLHQDWLNGKEYKCKVSNKALPAPIEKTISKAKGRPREPQVYTLPPSREEMTKNQVSLTCLVKGFYPSDIAVEWESNGQPENNYKTTPPVLDSDGSFFLYSKLTVDKSRWQQGNIFSCSVMHEALHNHYTQKSLSLSPAK
14 | – | 1.2 | Fc polypeptide variant 2H06 (Fcγ1, in vitro translated) (other, Fc region only, in vitro translated with 35S-methionine for RIA) AHTCPPCPAPELLGGPSVFLFPPKPKDTLMISRTPEVTCVVVDVSHGDPEVKFNWHVDGVEVHNAKTKPREEQYNSTYRVVSVLTVLHQDWLNGKEYKCKVSSKALPAPIEKTISKAKGQPREPQVYTLPPSREEMTKNQVSLTCLVRGFYPSDIAVEWESNGQPENNYKTTPPVLDSDGSFFLYSKLTVDKSRWQQGNVFSCSVMHEALHNHYTQKSLSLSPGK
15 | 2.3 | – | Fc polypeptide variant 136G11 (Fcγ1, in vitro translated) (other, Fc region only, in vitro translated with 35S-methionine for RIA) AHTCPPCPAPELLGGPSVFLFPPKAKDTLMISRTPKVTCVVVDVSHEDPEVKFNWYVNGVEVHNARTKPREEQYDSAYRVVSVLTVLHQDWLNGKEYKCEVSNKALPAPIEKTISKAKGRPREPQVYTLPPAREEMTKNQVSPTCLVKGFYPSDIAVEWESNGQPENNYKTTPPVLDSDGSFFLYSKLTVDKSRWQQGNVFSCSVMHEALHNHYTQKSLSLSPGK
16 | – | 1.4 | Fc polypeptide variant 2C06 (Fcγ1, in vitro translated) (other, Fc region only, in vitro translated with 35S-methionine for RIA) AHTCPPCPAPELLGGPSVFLFPPKPKDTLMISRTPEVTCVVVDVSHEDPEVKFNWYVDGVGVHNAKTKPREEQYNSTYRVVSVLTVLHQDWLKGKEYKCKVSNKALPAPIGKTISKAKGQPQEPQVYTLPPSREEMTKNQVSPTCLVKGFYPSDIAVEWESNGQPENNYKTTPPVLDSDGSFFLYSKLTVDKSRWQQGNVFSCSVMHEALHNHYTQKSLTLSPGK
17 | 1.7 | – | Fc polypeptide variant 125H10 (Fcγ1, in vitro translated) (other, Fc region only, in vitro translated with 35S-methionine for RIA) AHTCPPCPAPELLGGPSVFLFPPKPKDTLTISRTPEVTCVVVDVSHEDPEVKFNWYVDGVEVHNAKTKLREEQYNSTYRVVSVLTVLHQDWLNGKEYKCKVSNKALPAPIEKTISKAKGQPREPQVYTLAPSWEEMTKNQVSLTCLVKGFYPSDIAVEWESNGQPENDYKTTPPVLDSDGSFFLYGKLTVDKSRWQQGNVFSCFVMHESLHNHYTQKSLSLSPGK
18 | 1.8 | – | Fc polypeptide variant 126G05 (Fcγ1, in vitro translated) (other, Fc region only, in vitro translated with 35S-methionine for RIA) AHTCPPCPAPELLGGPSVLLFPPKPKDTLMISRTPEVTCVVVDVSHEDPEAKFNWYVDGVEVHNAKTKPREEQYNSTYRVVSVLTVLHQDWLNGKEYKCKVSNKALPAPIEKTISKAQGQPREPQVYTLPPSREEMTKNQVSLTCLVKGFYPSDIAVEWESNGQPENNYKTTPPVLDSDGSFFLYSKLTVDKSRWQQGNVFSCSVMHEALHNHYTQKSFSLSPGK
